From article PMC7588454, “Osteopontin binds ICOSL promoting tumor metastasis” (Communications Biology, 2020)

B1: soluble recombinant ICOSL-Fc (Fc fusion, UniProt O75144 19-256, looked up)
chain: DTQEKEVRAMVGSDVELSCACPEGSRFDLNDVYVYWQTSESKTVVTYHIPQNSSLENVDSRYRNRALMSPAGMLRGDFSLRLFNVTPQDEQKFHCLVLSQSLGFQEVLSVEVTLHVAANFSVPVVSAPHSPSQDELTFTCTSINGYPRPNVYWINKTDNSLLDQALQNDTVFLNMRGLYDVVSVLRIARTPSVNIGCCIENVLLQQNLTVGSQTGNDIGERDKITENPVSTGEKNAAT
notes: also called B7-H2; CD275; source: bought: Bio-Techne / R&D

Assays:
Assay in all cases: ELISA; OPN preparation (60 nM in PBS) coated on MaxiSorp plates; ICOSL-Fc titrated from 60 nM to 1.8 nM in PBS + 0.05% Tween-20, 1 h at 25 C, with or without 60 nM ICOS-Fc, or ICOS-Fc alone; detected with HRP anti-human-IgG1
Settings in all cases: both partners purified
[1] = molecular target: B1
[2] = molecular target: T1, full-length OPN (OPN-a) produced in an eukaryotic system ( (human or mouse cDNA cloned), UniProt P10451-1 17-314)
T1 construct: Osteopontin, full-length form OPN-a; Secreted into the supernatant, so the signal peptide is probably absent (surmise); also called OPN-FL; home-made OPN-FL; source: CHO cells, stably transfected (pUCOE vector), purified from supernatant on nickel-nitrilotriacetic agarose

[3] = molecular target: T2, GST-OPN fusion protein (human OPNa) produced in E. coli (human, UniProt P10451-1 17-314)
T2 construct: human Osteopontin OPNa; also called OPN-GST; huGST-OPN; source: E. coli BL21 (DE3), purified (Glutathione Sepharose)
T2 sequence (P10451 17-314): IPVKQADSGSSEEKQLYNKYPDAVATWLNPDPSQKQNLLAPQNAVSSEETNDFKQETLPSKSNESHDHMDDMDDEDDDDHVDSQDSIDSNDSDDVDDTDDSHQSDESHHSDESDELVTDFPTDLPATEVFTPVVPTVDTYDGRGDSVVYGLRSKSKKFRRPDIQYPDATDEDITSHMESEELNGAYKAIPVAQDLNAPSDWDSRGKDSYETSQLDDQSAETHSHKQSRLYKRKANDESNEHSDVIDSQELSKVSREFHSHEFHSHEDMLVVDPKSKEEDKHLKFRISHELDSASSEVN

T1 sequence (P10451 17-314): as above

Row | binding result [1] | binding result [2] | binding result [3] | Binder
1 | binds | – | – | recombinant C-term portion of OPN (aa 168-314) (domain or fragment, Osteopontin, C-terminal thrombin-generated fragment, aa 168-314; also called OPN-C; OPN-C terminal; source: recombinant) not shown
2 | – | binds | binds | B1
3 | binds | – | – | recombinant N-term portion of OPN (aa 17-167) (domain or fragment, Osteopontin, N-terminal thrombin-generated fragment, aa 17-167; also called OPN-N; OPN-N terminal; source: recombinant) not shown
